{"source": "the nanobody polyreactivity screen of Harvey et al. (2022)", "data": [{"experiment": "yeast display, Sf9 membrane polyspecificity reagent, FACS + sequencing; frameworks hold sequencing errors", "summary_of_the_method": "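In a synthetic yeast display library (Saccharomyces cerevisiae BJ5465), nanobody expression was induced with galactose for 36–48 hours. FACS gates were set low and high (top ~1%) using anti-HA fluorescence for expression and streptavidin fluorescence for binding of the Sf9 membrane reagent. Each polyreactivity label is drawn from the gate of origin.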", "values": [{"sequence": "KVQLVESGGGLVQAGGSLRLSCAASGNPLLFNALGWYRQAPGKERELVARITSSGASTYYADSVKGRFTISRDNAKNTLYLQMNSLKAEDTAVYYCAARTRTRRGYTSGDYWGQGSQVTVSS", "polyreactivity (PSR sort gate)": "high polyreactivity"}, {"sequence": "KVQLVESGGGLVQAGGSLRLSCAASGRIFRYYAMGWSRQAPGKERELVAAISRGGGSTYYADSVKGRFTISRDNAKNTVYLQMNSLKPEDTAVYYCANSVGRGPIGYDYWGQGTQVTVSS", "polyreactivity (PSR sort gate)": "high polyreactivity"}, {"sequence": "KVQLVESGGGLVQAGGSLRLSCAASGRTFVYYAMGWYRQAPGKERELVAAISSGGSTNYADSVKGRFTISRDNAKNTVYLQMNSLKPEDTAVYYCNADWGFPDVKETGVRFDYWGQGTQVTVSS", "polyreactivity (PSR sort gate)": "low polyreactivity"}, {"sequence": "KVQLVESGGGLVQAGGSLRLSCAASGSIFHNYDMGWYRQAPGKERELVADISRGGDTNYADSVKGRFTISRDNAKNTVYLEMKSLKPEDTAVYYCNATYWILDFPWWRETFDYWGQGTQVTVSS", "polyreactivity (PSR sort gate)": "low polyreactivity"}, {"sequence": "KVQLVESGGGLVQAGGSLRLSCAASGSIFWDNVMGWYRQAPGNERELVADIDSWDGGSTYYADSVKGRFTISRDNAKNTVYLQMNSLKPEDTAVYYCNSDVLWWRGGDDFWGKGTQVTVSS", "polyreactivity (PSR sort gate)": "low polyreactivity"}, {"sequence": "KVQLVESGGGLVQAGGSLRLSCAASGSIFYVNAMGWYRQAPGKERELVARITLSGTSTYYADSVKGRLTISRDNAKNTVYLQMNSLKPEDTAVYYCAATYWSWISLRFYWGQGTQVTVSS", "polyreactivity (PSR sort gate)": "low polyreactivity"}, {"sequence": "KVQLVESGGGLVQAGGSLRLSCAASGSTFQYYAMGWYRQAPGTERELVAAITSGGSTNYADSVKGRFTISRDNAKNTVYLQMNSLKPEDTAVYYCNADSSGWFPFDYWGQGTQVTVSS", "polyreactivity (PSR sort gate)": "low polyreactivity"}, {"sequence": "KVQLVESGGGLVQAGGSLRLSCAPSGSIFPLNARGWYSQAPGKERELVAAISESGGRTYYADSVKGRFTISRDNAKNTVYLQMNSLNPADTAVYHCATVRLARKSAPYDYWGQGTQVTVSS", "polyreactivity (PSR sort gate)": "high polyreactivity"}, {"sequence": "KVQLVESGGGLVQAGGSLRLSSADSGRIYVGYAIVWYRQEPGKEMEMVAGISRSGDSTYYADSVKGRFTISRDNAKNTVYLQMNSLKPEDTAVYYCAARINYWGYYYWGQGSQVTVSS", "polyreactivity (PSR sort gate)": "high polyreactivity"}, {"sequence": "KVQVVESGGCLVQAGGSLRLSCAASGFSFGGYAMGCYRQAPGKDRELVAAINYRGGSTNYADSVKGRFTISRDNAKNTVYFQMNSLKPEDTAVYYCAASYFYWRANRGPRYYWGQGTQVTVSS", "polyreactivity (PSR sort gate)": "high polyreactivity"}, {"sequence": "KVQVVESGGGFVQAGGSLRLSCAASGSTFVINAMGCYRQAPGKERELVAAITWGGGRTYYADSVKGRFTISRDNEKNTVYFQMNSLKPEDTAVYYCAAVGSGWKGDYWGQGTQVNVSS", "polyreactivity (PSR sort gate)": "low polyreactivity"}, {"sequence": "KVQVVESGGGVVQAGGTLRLSCAASGSIAGNAMGWYRQAPGKERELVAAITFRGSGTYYADSVKGRFTISRDNAKNTVYLQINSLKPEDTAVYYCNAYRRGLSGYGYWGQGTQVTVSS", "polyreactivity (PSR sort gate)": "high polyreactivity"}, {"sequence": "LVHHVESGGGLVQAGRSLRLTCAASGGTFFSNAMGWYRQSPGKERELVAGITSGGRTYYADAVKGRFTISRDNAMNTVYLQMNSMKPEDTAVFYCAAERFTRKYNYWGQGTQVTLSS", "polyreactivity (PSR sort gate)": "high polyreactivity"}, {"sequence": "LVQLQESGGGLVQAGGSLRLSCAASGTISPGGYMAWYRQAPCTERELVASINVGGSTNYADSVKGRFTISRDNAKNTVYLQMNSLKPEDNALYYCAVWGRNRLQLSYWGQGTQVTVIS", "polyreactivity (PSR sort gate)": "low polyreactivity"}, {"sequence": "LVQLVESGGGIVQAGGSLRLSCAASGLISQRNVMGWYRQAPGKERELVARISTSSSGTYYADSVKGRFTISRDNAKNTVYLQMNSLKPEDTAVYYCAKRWSPYYRLYSWGQGTQVTVSS", "polyreactivity (PSR sort gate)": "high polyreactivity"}, {"sequence": "LVQLVESGGGIVQAGGSLRLTCAASGRTFWGYSMGWYRQSPGKERELVAAISWTGGRTYYADSVKGRFTISRDYAKNSVNLQMNSLKPEDTAVYDCARPYTTYDGRYHYWGQGTQVTVSS", "polyreactivity (PSR sort gate)": "high polyreactivity"}, {"sequence": "LVQLVESGGGLGQAGGSLRLSCAASGFTFTIYAMGWYRQAPGKERELVAAISSSGYSTYYADSVKGRFTISRDNAKNTVYFQMISLKPEDTAVYYCAARGYYRSHLGFLYDYWGQGTQVTVSS", "polyreactivity (PSR sort gate)": "high polyreactivity"}, {"sequence": "LVQLVESGGGLLQAGGSPRLSCAASGFNFRGYAMGWYRQAPRKERELVAAINSGGSTNYADSVKGRFTISRDNAKNTVYLQMNSLNPEDTAVSYCAARVKTSYRYLRTYNYWGQGTQVTVSS", "polyreactivity (PSR sort gate)": "high polyreactivity"}, {"sequence": "LVQLVESGGGLVEAGGSLRLSWAASGIIFYYYAMGWYRQAPGKEREFVAGIRWSSGSTYYADSVKGRFTISRDNAKNTVYLQMNSLKPEDTAVYYCAAAYLSWYGGYYYWGQGTQVTVSS", "polyreactivity (PSR sort gate)": "low polyreactivity"}, {"sequence": "LVQLVESGGGLVQAGGSLRLSCAASGFIFAIYDMGWYRQAPGKERELVAAITSSSSTYADSVKGRFTISRDNAKNTVYLQMNSLKPEDTAVYYCAADTYSYRYSNDYWGQGTQVTVSS", "polyreactivity (PSR sort gate)": "low polyreactivity"}, {"sequence": "LVQLVESGGGLVQAGGSLRLSCAASGGTIVYYTMGWYRHAPGKERELVATIDNSDGSTYYADSVKGRFTISRDNAKNTVDLQMNSLKPEDTPVYYCSKSLPHSTSRDYWGQGTQLTVSS", "polyreactivity (PSR sort gate)": "low polyreactivity"}, {"sequence": "LVQLVESGGGLVQAGGSLRLSCAASGNIFYWYAMGWYRQAPRKEREFVAAITRSGGSTSYADSVKGRFTISRDNAKNTVYLQMNSLKPEDTAVYYCNATHWVHFQEFYSWGQGTQVTVSS", "polyreactivity (PSR sort gate)": "low polyreactivity"}, {"sequence": "LVQLVESGGGLVQAGGSLRLSCAASGSTFFYAMGWYRQAPGKERELVAGIVWSGGSTYYADSVKGRFTISRDNAKNTVYLQMNSLKPEDTAVYYCPAEYTDDYWGQGTQVTVSS", "polyreactivity (PSR sort gate)": "low polyreactivity"}, {"sequence": "LVQLVESGGGLVQAGGSLRLSGAASGSPFRQNAMGWYRQAPGKERELVAAITWRGDNTYYADSVKGRFTISRDNAKKPVYFQRNSLKPDDTAVDYCAARWSYRLYWGYGYWGQGTEVTVSS", "polyreactivity (PSR sort gate)": "low polyreactivity"}, {"sequence": "LVQVVESGGGLVQAGGSLGLSCAASGRIFRDYAMGWYRPATGKERELVAAISWSTVHTYYADSVKGRFTISRDNAKNTVYLQMNCLKPEDTAVYYCAVDRPGLTYYDYDYWGQGTQVTVSS", "polyreactivity (PSR sort gate)": "low polyreactivity"}, {"sequence": "PVQLEESGGGLVQAGGSLRLSCPASGTSAYYARGWYRQAPGKERALVAGISIGGSTNYADSVKGRFTITRDNAKNTVYVQMTSLKPEDTAVAYCSVDGYVAFSPDRNNYWGQGTQVTVSS", "polyreactivity (PSR sort gate)": "low polyreactivity"}, {"sequence": "PVQLQESGGGLVQAGGSLRLSCAARGNIFDADIMGWYSQAPGKERELVACIADGGSTNYAHSVKGRFTISRDNAKNTVYLHMNSVKPEDTAVYYCAAIAYPDIPTCFDYYSDYFFRGQGTQVTVSS", "polyreactivity (PSR sort gate)": "low polyreactivity"}, {"sequence": "PVQLVDSGGGLVQAGGSLRLSCAASGRTFGWYAMGWYRQAPGKERELVAAIRGVRTHYADSVKGRFTISRDNAKNTVYLQMNSLKPEDTAVYYCAARYYRWTKSEYGYWGQGTQVTVSS", "polyreactivity (PSR sort gate)": "high polyreactivity"}, {"sequence": "PVQLVESGGGIVQAGGSLRLSCAASGTSFEYNAMGWSRPAPGKERELVAAITWSVGSTYYADSVKGRFTISRDNAKNTVYLQMNSLKPEDTAVYYCAAFDTASVYEFDYWGQGTQVTVSS", "polyreactivity (PSR sort gate)": "low polyreactivity"}, {"sequence": "PVQLVESGGGLVHAGGRHRLSSAASGSIFNYYPMGWYRKAPGTERELVATISAGGSTNYADSVTGRFTISRDNAKNTVYLHKNRLKPEDTAVYYCNRARYYLTSYTYLTSYDYWGQGTQGTVSS", "polyreactivity (PSR sort gate)": "high polyreactivity"}, {"sequence": "PVQLVESGGGLVQAGGSLRLSCAASGFTFSYNDMGWYRQAPGKERELVAAITSTGGTYYADSVKGRFTISRDNAKNTVYLQMNSLKPEDTAVYYCAADRIGGPGSYLYDYWGQGTQVTVSS", "polyreactivity (PSR sort gate)": "low polyreactivity"}, {"sequence": "PVQLVESGGGLVQAGGSLRLSCAASGITIISYAMVWYRQAPGKERELVAAITKSGGRTYYADSVKGRFTISRDNAKNTVYLQMNSLKPEDTAVYYCAAYHLRDNRIGGGYWGQGTQVTVSS", "polyreactivity (PSR sort gate)": "high polyreactivity"}, {"sequence": "PVQLVESGGGLVQAGGSLRLSCAASGNIFGVYPMGWYRQAPGKERELVAVITSSGSTYADSVKGRFTISRDNAKNTVFLQMNSLKPEDTAVYYCNTDGYYHPHGFDYYRYYYWGQGTQVTVSS", "polyreactivity (PSR sort gate)": "high polyreactivity"}, {"sequence": "PVQLVESGGGLVQAGGSLRLSCAASGRIFAQYAMGWYRQAPGNERELVADISSGVRTYAASVKGRFTISRDNAKNTVSFQMNSLKPEDTAVYYFNAYYIIFTRNDYWGQGTQVTVSS", "polyreactivity (PSR sort gate)": "low polyreactivity"}, {"sequence": "PVQLVESGGGLVQAGGSLRLSCAASGSIFGVNDMGWYIQGAGKERELVAGINQGGGSTYYADSVKGRFTISRDIAKNTVYLQMNSLKPEDTAVYYCAAVRYVLRSPARYGYWGQGTQVTVSS", "polyreactivity (PSR sort gate)": "low polyreactivity"}, {"sequence": "PVQLVESGGGLVQAGGSLRLSCAASGSTFYIYAMGWYRQAPGKERELVAAITSRGTITSYADSVKGRFTISRDNAKNTVYLQMNSLKPEDTAVYYCAADYWQDGIAYWYDYWGQGTQVTVSS", "polyreactivity (PSR sort gate)": "low polyreactivity"}, {"sequence": "PVQLVESGGGLVQAGGSLRLSCAASGYTFSYNAMGWYRQAPGKERELVAAIYRGGRTYYADSVKGRFTISRDNAKNTVYLQMNSLKPEDTAVYYCAAKRWTTKNGFYEYPYYYWGQGTQVTVSS", "polyreactivity (PSR sort gate)": "high polyreactivity"}, {"sequence": "PVQLVESGGGLVQAGGSLRLSCDAYGSIFAYNAMGWYRQAPGKERELVAAISVSDGITYYADSVKGRFTISRDNAKNTVYLQMISLKPEDTAVYYCPARTRGPSRAYDYWGQGTQGTVSS", "polyreactivity (PSR sort gate)": "low polyreactivity"}, {"sequence": "PVQLVESRGGLVQAGGSLRLSCAASGIIFQRYAMGWYRQAPGKERELVAAINFSGGSTYYADSVKGRFTISRDNAKNTVYLQMNSLKPEDTSVYYCARAGRYAAYSPFYYWGQGTQVTVSS", "polyreactivity (PSR sort gate)": "high polyreactivity"}, {"sequence": "QAQLQESGGSLLQAGGGLRLSCAASGYISVGSVMGWYRQAPSKERELVASIDQGANTNYADSVKGRYTISRDNAKNNVYLQMNSLKPEDSAVYYCATETTYILNYWGQGTQVTVSS", "polyreactivity (PSR sort gate)": "low polyreactivity"}, {"sequence": "QAQLQESGGSLVQAGGGLRLSCAAIGYISVGSVMGWYRQAPSKERELVASIDQGANTNYADSVKGRFTISRDNAKNNVYLQMNSLKPEDTAVYYCATETTYILNYWGQGTQVTVSS", "polyreactivity (PSR sort gate)": "low polyreactivity"}, {"sequence": "QAQLVDSGGGLVQEGGSLRLSCAASGLIFDANVMGSYRQAPGKERELVAAISWSGGRTYYADSVKGRFTISRDNAKNTVFFQMNSMNPEVTAVYYCAADTWPDMHDYWGQGTQVTVSS", "polyreactivity (PSR sort gate)": "low polyreactivity"}, {"sequence": "QAQRVESGGGLGQAGGSLRLSCAASGRTFVRYTMGWYRQAPGKERELVAAISRSGGSTYYADSVKRRYTISRANAKNTVYLQLNSLKPEDTAVYYCAARRNAYHRDYYWGQGTQVTVSS", "polyreactivity (PSR sort gate)": "high polyreactivity"}]}]}
